From article doi:10.1101/2020.10.02.324624

Target: AmvR (Acinetobacter baumannii ATCC17978)
Experiment: SEC

AmvR (natural protein) gave a stoichiometry N of 2.
